For test [1], the target named is T1, rFVIII (Homo sapiens, UniProt P00451). Put plainly: confirmatory binding assay in filtration plate format using 14C-rFVIII. The following applies: for Total dpm / 0.5M CaCl2 % total / 2% acetic acid % total / 2% acetic acid dpm / 0.5M CaCl2 dpm / beads % total / beads dpm: Table 3; for Total dpm / beads % total / beads dpm: 14C-rFVIII 20 nM; for 0.5M CaCl2 % total / 2% acetic acid % total / 2% acetic acid dpm / 0.5M CaCl2 dpm: 14C-rFVIII 20 nM in PPF, 5 mg beads; for 0.5M CaCl2 dpm: 3.0 × 10^15 DPM/mole, 5° C.; for beads % total / beads dpm: remaining on beads after washes. How it is done: Confirmatory binding assays were performed in a filtration plate format using individual peptide sequences synthesized directly onto the TOYOPEARL AF amino 650 M resin, at a final substitution density of 0.1 mmole/g resin. A slurry of each individual peptide sequence was prepared using deionized water. A 100 μL volume of beads (corresponding to 5 mg) was loaded into each well of the filtration plate (MULTISCREEN Assay System, Millipore, Bedford, Mass.), in triplicate for each peptide sequence. Beads were washed with 20% ethanol and incubated overnight with equilibration buffer (20 mM imidazole, 10 mM
CaCl2, 0.105 M NaCl, pH 6.9). A 100 μL aliquot of ^14 C-rFVIII diluted in neat PPF to a final concentration of 20-30 nM was loaded into each well and incubated for 1 hour at 5° C. Filtrate (unbound ^14 C-rFVIII) was collected into a microtiter plate and transferred to liquid scintillation vials for dpm counting. Beads were washed sequentially with: 100 μL of equilibration buffer for 15 minutes, 200 μL of 0.5 M CaCl2 (in equilibration buffer), 200 μL of 1.0 M CaCl2 (in equilibration buffer), and 200 uL of 2% by volume glacial acetic acid in water, for 1 hour each at 5° C. Scintillation counting on the unbound ^14 C-rFVIII (plus equilibration buffer wash), salt and acid washes, as well as on the beads was then performed and the overall mass balance calculated.
Beads presenting the appropriate peptide sequence on the surface were placed in the filtration plate wells and incubated sequentially with equilibration buffer, ^14 C-rFVIII in PPF, equilibration buffer, 0.5 M CaCl2 wash, 1.0 M CaCl2 wash and 2% acetic acid wash. After each incubation, filtrate was collected in microtiter plates, and dpm counted on each
In Table 3, the ^14 C-rFVIII was loaded at 20 nM (in PPF) and the radiolabeling yield was at 3.0×10^15 dpm/mole. In Table 4, the ^14 C-rFVIII was loaded at 30 nM (in PPF) and the radiolabeling yield was at 5.0×10^15 dpm/mole.

The target of test [2] is T1, rFVIII. Put plainly: rFVIII activity recovery from peptide columns by chromogenic substrate assay (COATEST). The test is classed as biochemical. As for the experimental part:
(§1) Immunoassay on rFVIII using a sandwich capture ELISA for the light chain and activity assay using a chromogenic substrate (COATEST Factor VIII kit from diaPharma, Franklin, Ohio) were performed on a BIOMEK® automated liquid handling system from Beckman Instruments (Brea, Calif.). The monoclonal antibody for rFVIII light chain (known as C7F7), the ELISA assay standard (lot A70K019), and the control for the activity assay (lot A70A001 @ 140 IU/mL) were from the Bayer Corporation (Berkeley, Calif.). The standard for the activity assay was at 11.2 IU/mL (Bayer, Clayton, N.C.), calibrated against the MEGA 1 standard, which is a working standard used by American manufacturers for measuring factor VIII activity (21).
(§2) Additional confirmatory binding assay and performance of the discovered binding peptides in terms of total rFVIII and activity recovery was performed in a column chromatographic format on a microbore HPLC. The resins were packed into 0.4×5 cm columns (Thomson, Springfield, Va.) and tested on the MICHROM HPLC system (Michrom BioResources, Auburn, Calif.). The elution program for the trials utilized the following method. The column was pre-equilibrated with equilibration buffer (as above). A 1 mL aliquot of 1:10 PPF followed by 1 mL of rFVIII (10,000 ng) in 1:10 PPF were injected and allowed sufficient time to flow through the column using equilibration buffer. The column was then washed with step elutions of 0.5 M and 1.0 M CaCl2 in equilibration buffer. The column was exposed to equilibration buffer. Remaining protein was eluted with 2% by volume glacial acetic acid in water. Columns were kept at 5° C. during the chromatographic runs. For each 1 mL injection (equilibration buffer, 1:10 PPF and 10,000 ng rFVIII in 1:10 PPF), the chromatographic cycle was run for 45 minutes (injection, flow through, 0.5 M CaCl2, 1.0 M CaCl2, equilibration buffer, 2% acetic acid, equilibration buffer).
(§3) A Gilson FC204 fraction collector at the HPLC outlet collected individual eluates for further analysis. Each collection tube had 100 μL hSA added to it to stabilize the rFVIII. Fractions collected from the 2% acetic acid eluates were neutralized with 2 M Tris, pH 10.5 to bring the pH to neutrality. The fractions were analyzed for total protein by the integration of the absorbance at 280 nm, for rFVIII by immunoassay (sandwich capture ELISA), and for rFVIII activity by a chromogenic substrate assay.
Tables 7 and 8 list the sequences for which activity recovery was determined by a chromogenic substrate assay (COASTEST kit, diaPharma, Franklin, Ohio). Chromatographc conditions are the same as described above for the results from Tables 5 and 6. It can be

The target in test [3] is T1, rFVIII. Put plainly: column format binding assay, rFVIII mass per fraction by sandwich capture ELISA for the light chain. The following applies: for 0.5M CaCl2 ng / 0.5M CaCl2 % total / 2% acetic acid % total / 2% acetic acid ng / Flow through % total / Total ng / Flow through ng: Table 5; for Flow through ng: 10,000 ng rFVIII in 1:10 PPF injected, 5° C.; for ELISA results % total: Table 9, 0.5M CaCl2 fraction. As for the experimental part: as §1, §2, §3
Tables 5 and 6 present the results from the additional confirmatory binding assays using the column format. The chromatography method was run by injecting the samples at a flow rate of 865 μL/min (413 cm/hr). In order to provide a 10 minute residence time of sample in the column the flow was decreased to 17 μL/min (10 cm/hr) upon injection.
Following the incubation, the flow was set at 865 μL/min (413 cm/hr) for the step clutions of 0.5 M CaCl2, 1.0 M CaCl2, and 2% acetic acid. Results are expressed in terms of the total mass of rFVIII in each fraction, as determined by the sandwich capture ELISA assay for the rFVIII light chain. […] A control using a non-binding peptide sequence (IGF) is also shown for comparison--in this case, 95% of the rFVIII loaded to the column was collected in the flow through fraction. Additional controls with no

The record followed here is US6191256A, “Recombinant factor VIII binding peptides” (Bayer Corporation, priority 1998, dated 2001).

T1 sequence (P00451 20-2351): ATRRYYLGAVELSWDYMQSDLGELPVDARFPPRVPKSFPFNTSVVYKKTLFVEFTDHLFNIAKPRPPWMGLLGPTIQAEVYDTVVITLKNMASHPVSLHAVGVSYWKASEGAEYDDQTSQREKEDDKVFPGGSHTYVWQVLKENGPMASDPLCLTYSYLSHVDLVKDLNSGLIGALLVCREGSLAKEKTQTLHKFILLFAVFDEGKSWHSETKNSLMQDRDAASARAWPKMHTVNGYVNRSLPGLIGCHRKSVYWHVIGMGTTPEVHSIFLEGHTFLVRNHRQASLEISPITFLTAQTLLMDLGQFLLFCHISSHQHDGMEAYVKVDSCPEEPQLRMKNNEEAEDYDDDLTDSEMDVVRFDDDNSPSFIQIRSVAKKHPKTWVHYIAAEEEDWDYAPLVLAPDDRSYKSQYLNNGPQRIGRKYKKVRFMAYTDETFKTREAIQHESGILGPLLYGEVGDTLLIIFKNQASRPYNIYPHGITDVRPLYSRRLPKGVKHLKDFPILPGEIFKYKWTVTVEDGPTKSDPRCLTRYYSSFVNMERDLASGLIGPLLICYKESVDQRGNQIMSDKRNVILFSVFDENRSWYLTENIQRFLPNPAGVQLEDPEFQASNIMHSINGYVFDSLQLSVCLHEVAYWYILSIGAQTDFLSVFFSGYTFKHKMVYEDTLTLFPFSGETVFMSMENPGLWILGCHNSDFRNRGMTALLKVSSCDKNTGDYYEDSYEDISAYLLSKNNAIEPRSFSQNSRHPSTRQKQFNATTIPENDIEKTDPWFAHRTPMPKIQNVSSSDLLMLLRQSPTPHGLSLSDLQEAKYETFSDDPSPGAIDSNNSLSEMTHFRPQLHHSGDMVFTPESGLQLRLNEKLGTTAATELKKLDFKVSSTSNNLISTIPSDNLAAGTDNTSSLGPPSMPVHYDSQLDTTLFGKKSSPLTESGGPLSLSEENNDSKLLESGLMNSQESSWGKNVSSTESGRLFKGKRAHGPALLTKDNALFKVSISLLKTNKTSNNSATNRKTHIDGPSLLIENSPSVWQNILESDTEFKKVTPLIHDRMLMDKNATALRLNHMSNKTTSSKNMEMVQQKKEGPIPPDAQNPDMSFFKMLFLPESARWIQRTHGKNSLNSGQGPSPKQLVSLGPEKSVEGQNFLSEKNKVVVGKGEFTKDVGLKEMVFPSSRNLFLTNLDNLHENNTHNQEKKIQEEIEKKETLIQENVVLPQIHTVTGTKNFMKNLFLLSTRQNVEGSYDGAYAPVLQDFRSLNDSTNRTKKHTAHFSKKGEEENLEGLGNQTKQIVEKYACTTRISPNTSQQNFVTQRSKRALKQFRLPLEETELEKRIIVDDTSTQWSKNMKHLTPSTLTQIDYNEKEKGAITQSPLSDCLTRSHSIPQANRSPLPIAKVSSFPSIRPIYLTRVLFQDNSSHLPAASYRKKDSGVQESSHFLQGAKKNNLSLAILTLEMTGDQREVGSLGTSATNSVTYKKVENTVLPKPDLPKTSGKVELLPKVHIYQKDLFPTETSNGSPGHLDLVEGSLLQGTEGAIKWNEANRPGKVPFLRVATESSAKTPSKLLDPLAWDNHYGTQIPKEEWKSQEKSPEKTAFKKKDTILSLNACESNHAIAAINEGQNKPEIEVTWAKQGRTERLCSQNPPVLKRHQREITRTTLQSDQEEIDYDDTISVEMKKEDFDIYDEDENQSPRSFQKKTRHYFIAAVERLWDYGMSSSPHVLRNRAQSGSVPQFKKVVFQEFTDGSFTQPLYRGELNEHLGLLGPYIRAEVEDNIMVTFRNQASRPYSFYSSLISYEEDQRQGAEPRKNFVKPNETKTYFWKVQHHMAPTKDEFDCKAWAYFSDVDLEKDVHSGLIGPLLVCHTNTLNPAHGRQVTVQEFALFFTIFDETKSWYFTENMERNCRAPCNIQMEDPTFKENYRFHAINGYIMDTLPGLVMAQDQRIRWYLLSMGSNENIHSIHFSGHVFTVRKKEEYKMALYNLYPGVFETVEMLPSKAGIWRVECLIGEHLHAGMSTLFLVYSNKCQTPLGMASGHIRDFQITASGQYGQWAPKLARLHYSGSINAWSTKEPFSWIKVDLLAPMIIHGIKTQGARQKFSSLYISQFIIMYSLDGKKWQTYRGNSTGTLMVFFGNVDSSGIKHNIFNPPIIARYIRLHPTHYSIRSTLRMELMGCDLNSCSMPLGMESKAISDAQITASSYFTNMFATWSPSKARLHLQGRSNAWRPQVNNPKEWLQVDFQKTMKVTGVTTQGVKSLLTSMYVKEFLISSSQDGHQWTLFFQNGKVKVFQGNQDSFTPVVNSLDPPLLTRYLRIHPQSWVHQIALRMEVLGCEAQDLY
T1 sequence (P00451 1668-2351 limits assumed): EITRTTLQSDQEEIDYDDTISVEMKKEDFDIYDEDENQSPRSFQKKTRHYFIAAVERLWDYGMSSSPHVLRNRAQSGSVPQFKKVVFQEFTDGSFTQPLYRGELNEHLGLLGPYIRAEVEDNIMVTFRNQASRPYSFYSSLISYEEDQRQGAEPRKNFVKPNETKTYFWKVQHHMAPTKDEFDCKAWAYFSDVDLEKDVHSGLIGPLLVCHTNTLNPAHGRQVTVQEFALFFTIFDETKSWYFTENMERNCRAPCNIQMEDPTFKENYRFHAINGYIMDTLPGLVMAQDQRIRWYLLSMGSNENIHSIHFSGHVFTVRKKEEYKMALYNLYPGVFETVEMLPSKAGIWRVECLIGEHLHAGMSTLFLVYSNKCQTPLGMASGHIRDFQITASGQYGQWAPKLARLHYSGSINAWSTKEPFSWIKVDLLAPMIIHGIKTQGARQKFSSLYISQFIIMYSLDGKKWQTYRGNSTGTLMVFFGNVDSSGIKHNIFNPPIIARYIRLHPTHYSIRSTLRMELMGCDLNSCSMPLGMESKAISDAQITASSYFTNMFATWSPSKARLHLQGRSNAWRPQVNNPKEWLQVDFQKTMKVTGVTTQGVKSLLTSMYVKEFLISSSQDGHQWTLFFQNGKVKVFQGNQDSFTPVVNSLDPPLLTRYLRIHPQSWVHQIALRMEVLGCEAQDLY

For 1 (KPNPLA) [compound 1], in the test with rFVIII [1], the Total dpm was found to be 3162 dpm, the “0.5M CaCl2 % total” value is on record as 85%, the “2% acetic acid % total” value turned out to be 12% and the “2% acetic acid dpm” value was determined as 368 dpm. Besides, in the test with rFVIII [1], the “0.5M CaCl2 dpm” value is given as 2694 dpm, the beads % total is on record as 3% and the beads dpm is reported as 99 dpm. In the test with rFVIII [2] (Table 7), the “0.5M CaCl2 IU” value was 32.8 IU, the “2% acetic acid % total” value turned out to be 2%, the “2% acetic acid IU” value stood at 0.58 IU and the “Flow through % total” value was found to be 0%. In addition, the “Total IU” value with rFVIII [2] (Table 7) is on record as 36.5 IU. In the test with rFVIII [2] (Table 7, activity recovery), the “0.5M CaCl2 % total” value was 90%. The “Flow through IU” value with rFVIII [2] (Table 7, rFVIII activity in fraction) was determined as 0.03 IU. Further, the “Activity results % total” value in the test with rFVIII [2] (Table 9, 0.5M CaCl2 fraction) is listed as 90%. In addition, in the test with rFVIII [3], the “0.5M CaCl2 ng” value worked out at 4961 ng, the “0.5M CaCl2 % total” value is on record as 88%, the “2% acetic acid % total” value was 1% and the “2% acetic acid ng” value was 61 ng. In addition, in the test with rFVIII [3], the “Flow through % total” value came out at 10%, the Total ng was 5651 ng, the Flow through ng was 583 ng and the “ELISA results % total” value is reported as 88%.

3 (YVQGLW) [compound 3]: in the test with rFVIII [1], the Total dpm is given as 2020 dpm, the “0.5M CaCl2 % total” value came to 74%, the “2% acetic acid % total” value amounted to 19% and the “2% acetic acid dpm” value was found to be 379 dpm. In addition, in the test with rFVIII [1], the “0.5M CaCl2 dpm” value is reported as 1502 dpm, the beads % total is given as 7% and the beads dpm stood at 140 dpm.

As for 4 (FRPHWA) [compound 4], in the test with rFVIII [1], the Total dpm turned out to be 3744 dpm, the “0.5M CaCl2 % total” value is recorded as 78%, the “2% acetic acid % total” value was 17% and the “2% acetic acid dpm” value amounted to 631 dpm. In the test with rFVIII [1], the “0.5M CaCl2 dpm” value is 2905 dpm, the beads % total was 6% and the beads dpm is reported as 209 dpm. Besides, in the test with rFVIII [3], the “0.5M CaCl2 ng” value came out at 5510 ng, the “0.5M CaCl2 % total” value was 90%, the “2% acetic acid % total” value is on record as 3% and the “2% acetic acid ng” value amounted to 160 ng. In the test with rFVIII [3], the “Flow through % total” value is on record as 4%, the Total ng is reported as 6123 ng, the Flow through ng was found to be 225 ng and the “ELISA results % total” value was found to be 90%.

As to 8 (RPRW) [compound 8], in the test with rFVIII [1], the Total dpm stood at 4098 dpm, the “0.5M CaCl2 % total” value is 86%, the “2% acetic acid % total” value was determined as 9% and the “2% acetic acid dpm” value is given as 377 dpm. Moreover, in the test with rFVIII [1], the “0.5M CaCl2 dpm” value worked out at 3543 dpm, the beads % total was 4% and the beads dpm came to 178 dpm. Moreover, in the test with rFVIII [3], the “0.5M CaCl2 ng” value was 5449 ng, the “0.5M CaCl2 % total” value is recorded as 97%, the “2% acetic acid % total” value is recorded as 0% and the “2% acetic acid ng” value is listed as 10 ng. Moreover, in the test with rFVIII [3], the “Flow through % total” value is on record as 2%, the Total ng was 5623 ng, the Flow through ng is reported as 122 ng and the “ELISA results % total” value was 97%.

As for 16 (WRRHRY) [compound 16], in the test with rFVIII [1], the Total dpm is 2897 dpm, the “0.5M CaCl2 % total” value is 21%, the “2% acetic acid % total” value was found to be 45% and the “2% acetic acid dpm” value was 1302 dpm. Moreover, in the test with rFVIII [1], the “0.5M CaCl2 dpm” value is listed as 608 dpm, the beads % total is given as 34% and the beads dpm stood at 986 dpm. In addition, in the test with rFVIII [3], the “0.5M CaCl2 ng” value is given as 338 ng, the “0.5M CaCl2 % total” value is 9%, the “2% acetic acid % total” value stood at 71% and the “2% acetic acid ng” value is 2550 ng. In the test with rFVIII [3], the “Flow through % total” value is given as 2%, the Total ng stood at 3615 ng and the Flow through ng amounted to 56 ng.

With 17 (FYRFWN) [compound 17], in the test with rFVIII [1], the Total dpm was 3009 dpm, the “0.5M CaCl2 % total” value stood at 17%, the “2% acetic acid % total” value worked out at 72% and the “2% acetic acid dpm” value turned out to be 2156 dpm. In addition, in the test with rFVIII [1], the “0.5M CaCl2 dpm” value is recorded as 498 dpm, the beads % total is recorded as 12% and the beads dpm was found to be 355 dpm. Moreover, in the test with rFVIII [3], the “0.5M CaCl2 ng” value turned out to be 1622 ng, the “0.5M CaCl2 % total” value is recorded as 37%, the “2% acetic acid % total” value is given as 54% and the “2% acetic acid ng” value was found to be 2336 ng. Moreover, in the test with rFVIII [3], the “Flow through % total” value is listed as 3%, the Total ng was 4348 ng and the Flow through ng stood at 127 ng.

18 (WLWSHN) [compound 18]: in the test with rFVIII [1], the Total dpm stood at 2608 dpm, the “0.5M CaCl2 % total” value turned out to be 25%, the “2% acetic acid % total” value came to 67% and the “2% acetic acid dpm” value came to 1752 dpm. Also, in the test with rFVIII [1], the “0.5M CaCl2 dpm” value is given as 651 dpm, the beads % total was found to be 8% and the beads dpm turned out to be 205 dpm. For the same substance, in the test with rFVIII [3], the “0.5M CaCl2 ng” value was 2362 ng, the “0.5M CaCl2 % total” value amounted to 56%, the “2% acetic acid % total” value is given as 18% and the “2% acetic acid ng” value turned out to be 760 ng. In the test with rFVIII [3], the “Flow through % total” value is recorded as 0%, the Total ng is recorded as 4200 ng and the Flow through ng amounted to 8 ng.

On to IGF [reference compound], for which, on rFVIII [1], the Total dpm was determined as 274 dpm, the “0.5M CaCl2 % total” value worked out at 80%, the “2% acetic acid % total” value was determined as 15% and the “2% acetic acid dpm” value came out at 41 dpm. Besides, on rFVIII [1], the “0.5M CaCl2 dpm” value turned out to be 219 dpm, the beads % total was found to be 5% and the beads dpm came out at 14 dpm. In addition, the “binding of rFVIII in words” value at rFVIII [1] (plate format) is “non binder”. Also, at rFVIII [3], the “0.5M CaCl2 ng” value is listed as 201 ng, the “0.5M CaCl2 % total” value turned out to be 4%, the “2% acetic acid % total” value is on record as 0% and the “2% acetic acid ng” value was found to be 10 ng. On rFVIII [3], the “Flow through % total” value worked out at 95%, the Total ng was determined as 4962 ng and the Flow through ng is 4719 ng.
